# From patent US20210292392A1 (TSB THERAPEUTICS BEIJING, published 2021)
# Like-named read-outs stand apart in the source and are kept apart here.
# B1: P4B-1F4 (antibody, human IgG1, kappa, V domains shown)
# VH: QVQLVESGGGVVQPGRSLRLSCAASGFTFSSYGMHWVRQAPGKGLEWVAVISYDGSNKYYADSVKGRFTISRDNSKNTLYLQINSLRAEDTAVYYCAKGPRYSSSWYISLYYYYGMDVWGQGTTVTVSS
# VL: not shown
# B2: P2B-1G5 (antibody, human IgG1, lambda, V domains shown)
# VH: QVQLVQSGSELKKPGASVKVSCKASGYTFTTYVMNWVRQAPGQGLEWMGWINTNTGNPTYAQGFTGRFVFSLDTSVSTASLQISSLKAEDTAVYYCSCEITTLGGMDVWGQGTTVTVSS
# VL: SYVLTQPPSVSVAPGKTARITCGGNNIGSKSVHWYQQKPGQAPVLVIYYDSDRPSGIPERFSGSNSGNTATLTISGVEAGDEADYYCQVWDSISDHRVFGGGTKLTVLG
# B3: P2B-2F6 (antibody, V domains shown)
# VH: QVQLQESGPGLVKPSETLSLTCTVSGYSISSGYYWGWIRQPPGKGLEWIGSIYHSGSTYYNPSLKTRVTISVDTSKNQFSLKLSSVTAADTAVYYCARAVVGIVVVPAAGRRAFDIWGQGTMVTVSS
# VL: QSALTQPPSASGSPGQSVTISCTGTSSDVGGYNYVSWYQQHPGKAPKLMIYEVSKRPSGVPDRFSGSKSGNTASLTVSGLQAEDEADYYCSSYAGSNNLVFGGGTKLTVLG
# B4: P2B-2F6 (antibody, V domains shown)
# VH: QVQLQESGPGLVKPSETLSLTCTVSGYSISSGYYWGWIRQPPGKGLEWIGSIYHSGSTYYNPSLKTRVTISVDTSKNQFSLKLSSVTAADTAVYYCARAVVGIVVVPAAGRRAFDIWGQGTMVTVSS
# VL: QSALTQPPSASGSPGQSVTISCTGTSSDVGGYNYVSWYQQHPGKAPKLMIYEVSKRPSGVPDRFSGSKSGNTASLTVSGLQAEDEADYYCSSYAGSNNLVFGGGTKLTVLG
# B5: P2B-2F6 (antibody, V domains shown)
# VH: QVQLQESGPGLVKPSETLSLTCTVSGYSISSGYYWGWIRQPPGKGLEWIGSIYHSGSTYYNPSLKTRVTISVDTSKNQFSLKLSSVTAADTAVYYCARAVVGIVVVPAAGRRAFDIWGQGTMVTVSS
# VL: QSALTQPPSASGSPGQSVTISCTGTSSDVGGYNYVSWYQQHPGKAPKLMIYEVSKRPSGVPDRFSGSKSGNTASLTVSGLQAEDEADYYCSSYAGSNNLVFGGGTKLTVLG
# Columns and labels:
# [1] = biological target: T1, full length spike (S) protein of SARS-CoV-2 (SARS-CoV-2, UniProt P0DTC2 14-1273); experiment: cell-based or functional assay
# [2] = biological target: T1, full length spike (S) protein of …; experiment: cell-based or functional assay; remark: listed apart in the source
# [3] = biological target: recombinant RBD of the spike protein of SARS-CoV-2 (residues Arg319-Phe541) (SARS-CoV-2, UniProt P0DTC2 319-541)
# [4] = biological target: spike protein on live SARS-CoV-2 (SARS-CoV-2, UniProt P0DTC2 14-1273); experiment: cell-based or functional assay
# [5] = biological target: T1, full length spike (S) protein of …; experiment: cell-based or functional assay; remark: listed apart in the source
# [6] = biological target: spike protein of live SARS-CoV-2 (SARS-CoV-2, UniProt P0DTC2 14-1273); experiment: cell-based or functional assay
# [7] = biological target: full length S protein of SARS-CoV-2 (on pseudovirus) (SARS-CoV-2, UniProt P0DTC2 14-1273); experiment: cell-based or functional assay
# [8] = biological target: spike (S) protein of live SARS-CoV-2 (SARS-CoV-2, UniProt P0DTC2 14-1273); experiment: cell-based or functional assay
# [9] = biological target: full length spike (S) protein of SARS-CoV-2 on pseudovirus (SARS-CoV-2, UniProt P0DTC2 14-1273); experiment: cell-based or functional assay
binder,measurement,setting,value
B1,"IC90, Pesudovirus neutralization",[1],14.5 µg/mL
B2,"IC50, pseudovirus neutralization",[2],0.11 µg/mL
same,Kd,[3],100 pM
same,kon,[3],1.38e+06 M⁻¹ s⁻¹
B3,"IC50, live SARS-CoV-2 focus reduction neutralization test (FRNT)",[4],0.41 µg/mL
same,"IC50, pseudovirus neutralization",[5],0.05 µg/mL
same,Neutralizing activity (%) Mean at 0.0228624 µg/ml,[5],39.4%
same,Neutralizing activity (%) Mean at 0.0685871 µg/ml,[5],51.8%
same,Neutralizing activity (%) Mean at 0.2057613 µg/ml,[5],67.1%
same,Neutralizing activity (%) Mean at 0.6172839 µg/ml,[5],81.4%
same,Neutralizing activity (%) Mean at 1.851852 µg/ml,[5],89%
same,Neutralizing activity (%) Mean at 5.555555 µg/ml,[5],93.5%
same,Neutralizing activity (%) Mean at 16.66667 µg/ml,[5],95.4%
same,Neutralizing activity (%) Mean at 50 µg/ml,[5],97.4%
B4,Live virus IC50,[6],0.407 µg/mL
same,Pseudovirus IC50,[7],0.05 µg/mL
same,Pseudovirus IC80,[7],0.607 µg/mL
B5,Live virus IC50,[8],0.407 µg/mL
same,Live virus IC80,[8],2.43 µg/mL
same,Pseudovirus IC50,[9],0.05 µg/mL
same,Pseudovirus IC80,[9],0.607 µg/mL
